Results on two molecules are retold here after article PMC2151085 (PLoS Pathogens, 2007).

For series [1], the target named is ALV-A Env surface subunit (SU), wild type, on virus particles (avian leukosis virus-A (ALV-A)) (UniProt P0DTM4).
Series [2] concerns the molecule itself. As to the kind of experiment: SDS-resistant oligomer by SDS-PAGE and immunoblot. On the technique in general: Immunoblotting shows a protein as a band on a membrane.

Chain of ALV-A Env surface subunit (SU), wild type, on virus particles (avian leukosis virus-A (ALV-A)) (P0DTM4 63-401): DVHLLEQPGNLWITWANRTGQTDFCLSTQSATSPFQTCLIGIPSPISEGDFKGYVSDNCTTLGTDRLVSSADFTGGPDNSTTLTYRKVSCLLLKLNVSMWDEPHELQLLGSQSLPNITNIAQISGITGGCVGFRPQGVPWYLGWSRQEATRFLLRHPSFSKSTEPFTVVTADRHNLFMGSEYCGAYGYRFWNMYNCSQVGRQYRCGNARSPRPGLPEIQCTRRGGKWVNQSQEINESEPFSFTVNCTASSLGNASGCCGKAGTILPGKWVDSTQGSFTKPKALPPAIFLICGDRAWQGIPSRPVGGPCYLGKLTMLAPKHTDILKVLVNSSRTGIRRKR

In the case of “sTva, a functional isoform of the ALV-A receptor lacking the transmembrane domain”, in series [1], the infection of 293-Tva cells by ALV-A particles exposed to PMB (10 mM) in the presence of sTva (10 uM) was more than 99%.

B1: ALV-A Env transmembrane subunit (TM), on virus particles (natural protein)
chain: STSHLDDTCSDEVQLWGPTARIFASILAPGVARAQALREIERLACWSVKQANLTTSFLGDLLDDVTSIRHAVLQNRAAIDFLLLAHGHGCEDVAGMCCFNLSDHSESIQKKFQLMKEHVNKIGVDSDPIGSWLRGLFGGIGEWAVHLLKGLLLGLVVILLLVVCLPCLLQIVCGNIRKMINNSISYHTEYKKLQKACGQPESRIV
With B1, the stoichiometry N (commonly a count of units in the complex or per binding partner) in series [2] amounted to 3.
